# In US20230212549A1 (3B PHARMACEUTICALS, published 2023):
# “And” between values parts separate entries of the source, which are not always exact repeats. Identical values can stand only once. Numbered stars: 1 amine (or outer) side, 2 acyl side, 3 side chain; on linkers, the order of the positions; unused ones are H or OH. Bridge positions count the residues as written; N and C are the ends. Square brackets hold non-standard residues; d marks the D form. Primed or numbered codes have the meaning given here. * marks the point of attachment. tMeBn(DOTA-PP) = 1,3,5-trimethylbenzylidene, two thioethers to Cys, third CH2 bound to one N of piperazine whose other N bears DOTA, O=C(O)CN1CCN(CC(=O)O)CCN(CC(=O)N2CCN(Cc3cc(C[*:1])cc(C[*:2])c3)CC2)CCN(CC(=O)O)CC1; Ttds(6) = 1,13-Diamino-4,7,10-trioxatridecan-succinamic acid, O=C(CCC(=O)[*:2])NCCCOCCOCCOCCCN[*:1]; Ttds = 1,13-diamino-4,7,10-trioxatridecan-succinamic acid, O=C(CCC(=O)[*:2])NCCCOCCOCCOCCCN[*:1]; 3MeBn = 3-Methylbenzylidene (m-xylylene thioether bridge from α,α′-dibromo-m-xylene); N4Ac = 6-Carboxy-1,4,8,11-tetraazaundecane, an N4-chelator, NCCNCC(CNCCN)C(=O)*; DTPA = O=C(O)CN(CCN(CC(=O)O)CC(=O)O)CCN(CC(=O)O)CC(=O)*; nBu‑CAyl = n-butylaminocarbonyl, CCCCNC(=O)*; Pro(4S-NH2) = N[C@@H]1CN[C@H](C(=O)O)C1; mXylylene = c1cc(C[*:1])cc(C[*:2])c1; NMeF = CN[C@@H](Cc1ccccc1)C(=O)O; Tic = O=C(O)[C@@H]1Cc2ccccc2CN1; Pen = CC(C)(S)[C@H](N)C(=O)O; Nle = CCCC[C@H](N)C(=O)O; Hexanoyl = CCCCCC(=O)*
# Tests used:
# [1] = target: T1, human fibroblast activating protein (FAP) on WI-38 fibroblasts (human, UniProt Q12884 1-760); experiment: competitive FACS on WI-38 cells vs 3 nM Cy5-labeled peptide; pIC50 category A = >8.0
# T1 construct: FAP-expressing human WI-38 fibroblasts (ECACC)
# [2] = target: T2, Human recombinant FAP captured on anti-FAP antibody (SPR) (human, UniProt Q12884 26-760); experiment: SPR (Biacore), rhFAP captured by anti-FAP antibody; pKD category A = >8.0
# T2 construct: whole entry of human FAP named; also called rhFAP
# [3] = target: T3, fibroblast activation protein (FAP) on FAP-expressing human WI-38 fibroblasts (human, UniProt Q12884 1-760); experiment: competitive FACS, WI-38 cells, vs Cy5 tracer m3; D = pIC50 <=6.0
# T3 construct: also called human FAP
# [4] = target: Recombinant human FAP (R&D systems, #3715-SE) (human, UniProt Q12884 26-760); experiment: cell-based or functional assay
# [5] = target: T4, human fibroblast activation protein (FAP) on WI-38 fibroblasts (human, UniProt Q12884 1-760); experiment: competitive FACS, WI-38 cells, Cy5-labeled peptide as competitor; C = pIC50 6.1 to 7.0
# T4 construct: FAP-expressing human WI-38 fibroblasts (ECACC)
# [6] = target: Recombinant human FAP (R&D systems, #3715-SE) (human, UniProt Q12884 26-760); experiment: cell-based or functional assay; remark: listed apart in the source
Binder,pIC50 Category (FACS) [3] [pIC50],pIC50 Category (Activity) [4],pIC50 [5] [pic50],also measured
"{nBu‑CAyl}-CPPTEFC-OH (linker 1-7 via tMeBn(NOPO-AET), also called 3BP-4778) [nBu-CAyl-[C(tMeBn(NOPO-AET))-PPTEFC]-OH]",,,,pIC50 [1]: > 8 pic50; pKD [2]: > 8 pkd
"Hexanoyl-CPPTE[NMeF]C-NH2 (linker 1-7 via mXylylene; SMILES CCCCCC(=O)N[C@H]1CSCc2cccc(c2)CSC[C@@H](C(N)=O)NC(=O)[C@H](Cc2ccccc2)N(C)C(=O)[C@H](CCC(=O)O)NC(=O)[C@H]([C@@H](C)O)NC(=O)[C@@H]2CCCN2C(=O)[C@@H]2CCCN2C1=O, also called 3BP-3358) [Hex-[Cys(3MeBn)-Pro-Pro-Thr-Glu-Nmf-Cys]-NH2]",≤ 6,6.1 pIC50 and 7 pIC50,,
"Hexanoyl-CPQFPTCD-NH2 (linker 1-7 via tMeBn(DOTA-PP); SMILES CCCCCC(=O)N[C@H]1CSCc2cc(cc(CN3CCN(C(=O)CN4CCN(CC(=O)O)CCN(CC(=O)O)CCN(CC(=O)O)CC4)CC3)c2)CSC[C@@H](C(=O)N[C@@H](CC(=O)O)C(N)=O)NC(=O)[C@H]([C@@H](C)O)NC(=O)[C@@H]2CCCN2C(=O)[C@H](Cc2ccccc2)NC(=O)[C@H](CCC(N)=O)NC(=O)[C@@H]2CCCN2C1=O, also called 3BP-3857) [Hex-[Cys(tMeBn(DOTA-PP))-Pro-Gln-Phe-Pro-Thr-Cys]-Asp-NH2]",,,6.1 to 7,
"Hexanoyl-CPPTEF[Pen]-NH2 (linker 1-7 via mXylylene; SMILES CCCCCC(=O)N[C@H]1CSCc2cccc(c2)CSC(C)(C)[C@@H](C(N)=O)NC(=O)[C@H](Cc2ccccc2)NC(=O)[C@H](CCC(=O)O)NC(=O)[C@H]([C@@H](C)O)NC(=O)[C@@H]2CCCN2C(=O)[C@@H]2CCCN2C1=O, also called 3BP-3351) [Hex-[Cys(3MeBn)-Pro-Pro-Thr-Glu-Phe-Pen]-NH2]",≤ 6,6.1 pIC50 and 7 pIC50,,
"Hexanoyl-CPPAQFCD-NH2 (linker 1-7 via tMeBn(DOTA-PP); SMILES CCCCCC(=O)N[C@H]1CSCc2cc(cc(CN3CCN(C(=O)CN4CCN(CC(=O)O)CCN(CC(=O)O)CCN(CC(=O)O)CC4)CC3)c2)CSC[C@@H](C(=O)N[C@@H](CC(=O)O)C(N)=O)NC(=O)[C@H](Cc2ccccc2)NC(=O)[C@H](CCC(N)=O)NC(=O)[C@H](C)NC(=O)[C@@H]2CCCN2C(=O)[C@@H]2CCCN2C1=O, also called 3BP-3745) [Hex-[Cys(tMeBn(DOTA-PP))-Pro-Pro-Ala-Gln-Phe-Cys]-Asp-NH2]",,,6.1 to 7,
"Hexanoyl-CPPTAFCD-NH2 (linker 1-7 via tMeBn(DOTA-PP); SMILES CCCCCC(=O)N[C@H]1CSCc2cc(cc(CN3CCN(C(=O)CN4CCN(CC(=O)O)CCN(CC(=O)O)CCN(CC(=O)O)CC4)CC3)c2)CSC[C@@H](C(=O)N[C@@H](CC(=O)O)C(N)=O)NC(=O)[C@H](Cc2ccccc2)NC(=O)[C@H](C)NC(=O)[C@H]([C@@H](C)O)NC(=O)[C@@H]2CCCN2C(=O)[C@@H]2CCCN2C1=O, also called 3BP-3739) [Hex-[Cys(tMeBn(DOTA-PP))-Pro-Pro-Thr-Ala-Phe-Cys]-Asp-NH2]",,,6.1 to 7,
"N4Ac-[Ttds(6)]ECPPTEFC-OH (linker 3-9 via 3MeBn, also called 3BP-4233) [N4Ac-Ttds-Glu-[Cys-(3MeBn)-Pro-Pro-Thr-Glu-Phe-Cys]-OH]",,,6.1 to 7,pIC50 Category (Activity) [6]: ≤ 6 pIC50
"CPPTEFC (N-term nBu-CAyl-; Cys1 and Cys7 thioether-bridged by tMeBn(NODAGA-AET); C-term -OH, also called 3BP-4724) [nBu-CAyl-[C(tMeBn(NODAGA-AET))-PPTEFC]-OH]",,,,pIC50 [1]: > 8 pic50
"Hexanoyl-CP[Pro(4S-NH2)]TEFC-NH2 (linker 1-7 via mXylylene; SMILES CCCCCC(=O)N[C@H]1CSCc2cccc(c2)CSC[C@@H](C(N)=O)NC(=O)[C@H](Cc2ccccc2)NC(=O)[C@H](CCC(=O)O)NC(=O)[C@H]([C@@H](C)O)NC(=O)[C@@H]2C[C@H](N)CN2C(=O)[C@@H]2CCCN2C1=O, also called 3BP-3367) [Hex-[Cys(3MeBn)-Pro-Tap-Thr-Glu-Phe-Cys]-NH2]",≤ 6,6.1 pIC50 and 7 pIC50,,
"Hexanoyl-CPPTE[Tic]C-NH2 (linker 1-7 via mXylylene; SMILES CCCCCC(=O)N[C@H]1CSCc2cccc(c2)CSC[C@@H](C(N)=O)NC(=O)[C@@H]2Cc3ccccc3CN2C(=O)[C@H](CCC(=O)O)NC(=O)[C@H]([C@@H](C)O)NC(=O)[C@@H]2CCCN2C(=O)[C@@H]2CCCN2C1=O, also called 3BP-3359) [Hex-[Cys(3MeBn)-Pro-Pro-Thr-Glu-Tic-Cys]-NH2]",≤ 6,6.1 pIC50 and 7 pIC50,,
"{DTPA}-[Ttds][Nle]CPPTEFC-OH (linker 3-9 via mXylylene; SMILES CCCC[C@H](NC(=O)CCC(=O)NCCCOCCOCCOCCCNC(=O)CN(CCN(CCN(CC(=O)O)CC(=O)O)CC(=O)O)CC(=O)O)C(=O)N[C@H]1CSCc2cccc(c2)CSC[C@@H](C(=O)O)NC(=O)[C@H](Cc2ccccc2)NC(=O)[C@H](CCC(=O)O)NC(=O)[C@H]([C@@H](C)O)NC(=O)[C@@H]2CCCN2C(=O)[C@@H]2CCCN2C1=O, also called 3BP-4229) [DTPA-Ttds-Nle-[Cys-(3MeBn)-Pro-Pro-Thr-Glu-Phe-Cys]-OH]",,,6.1 to 7,
